We go through 4 molecules from patent US20260297195 (published 2026).

For one experiment, the target named is human PDL1-His (human). Put plainly: SPR 25C.
Experiment [1] has as its target human PDL1-Fc (human). As to the kind of experiment: BLI.
For experiment [2], the target named is human PDL1-Fc (human). As to the kind of experiment: ELISA. For orientation: In an ELISA, binding on a coated surface is turned into a signal by an enzyme label.
Chain of human PDL1-Fc (human) (chain, as listed by the source): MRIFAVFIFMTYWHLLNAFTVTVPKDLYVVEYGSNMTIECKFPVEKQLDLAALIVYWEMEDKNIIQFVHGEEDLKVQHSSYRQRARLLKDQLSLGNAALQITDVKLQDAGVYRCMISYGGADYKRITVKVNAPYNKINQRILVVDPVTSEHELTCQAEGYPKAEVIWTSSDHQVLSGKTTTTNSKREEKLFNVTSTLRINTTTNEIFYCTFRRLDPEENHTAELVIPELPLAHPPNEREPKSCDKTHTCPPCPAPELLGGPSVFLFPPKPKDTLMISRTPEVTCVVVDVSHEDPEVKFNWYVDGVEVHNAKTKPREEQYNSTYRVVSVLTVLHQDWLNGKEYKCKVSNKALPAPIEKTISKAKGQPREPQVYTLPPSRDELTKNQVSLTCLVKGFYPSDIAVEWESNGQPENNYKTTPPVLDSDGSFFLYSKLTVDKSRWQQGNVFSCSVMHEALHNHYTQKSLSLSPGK

Chain of human PDL1-His (human) (chain, as listed by the source): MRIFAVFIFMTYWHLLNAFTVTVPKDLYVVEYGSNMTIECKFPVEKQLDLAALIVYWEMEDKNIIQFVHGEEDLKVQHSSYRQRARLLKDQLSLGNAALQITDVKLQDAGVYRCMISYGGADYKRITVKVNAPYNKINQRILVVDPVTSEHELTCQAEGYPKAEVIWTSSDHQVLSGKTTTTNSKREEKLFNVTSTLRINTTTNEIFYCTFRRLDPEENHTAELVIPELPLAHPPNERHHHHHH

B1: NbPDL1-14-Fc (antibody, V domains shown)
VH: QVQLQESGGGLVQPGGSLRLSCAASGIISDINMVAWYRQAPGKQRELVAKIFRGGSTYYTDFVKGRFTISRENAKNTVYLQMNSLKPDDTAVYYCNARIQIRADRDYSDYWGQGTQVTVSS
Regarding B1, in the experiment with human PDL1-His, the binding result was “no binding”.

B2: PDL1-14 (antibody, V domains shown)
VH: QVQLQESGGGLVQPGGSLRLSCAASGIISDINMVAWYRQAPGKQRELVAKIFRGGSTYYTDFVKGRFTISRENAKNTVYLQMNSLKPDDTAVYYCNARIQIRADRDYSDYWGQGTQVTVSS
As to B2, the binding result with human PDL1-His is on record as “no binding”.

B3: PDL1-1v5 (antibody, V domains shown)
VH: EVQLLESGGGLVQPGGSLRLSCAASGFTVSNSAVSWARQAPGKGLEWVSLIDSNRNTVYAQSVRGRFTISRDNVKNTVYLQMNSLRAEDTAVYYCAKGWGSTLWGQGTTVTVSS
In the experiment with human PDL1-Fc [1], B3 showed a Kd of 12.2 nM. It took 0.0478 µg/mL to reach a half-maximal effect with human PDL1-Fc [2] (EC50).

B4: PDL1-1v6 (antibody, V domains shown)
VH: EVQLLESGGGLVQPGGSLRLSCAASGFTVSNSAVSWARQAPGKGLEWVSLIDSNRNTVYAQSVRGRFTISRDNSKNTVYLQMNSLKAEDTAVYYCAKGIWGSTLWGQGTTVTVSS
Take B4: binding in the experiment with human PDL1-Fc [1] was characterised by a dissociation constant (Kd) of 22 nM.

As a reminder, the Kd is the free concentration of one partner at which half of the binding sites on the other are occupied at equilibrium, for simple one-to-one binding. A low value points to higher affinity. A word on the EC50: it is the midpoint of the concentration-response curve. A low value points to a more potent agent.
